Experimental data taken from PMC8326762, “A Small Molecule Inhibitor of Pex3–Pex19 Interaction Disrupts Glycosome Biogenesis and Causes Lethality in Trypanosoma brucei” (Frontiers in Cell and Developmental Biology, 2021).
Each block holds one molecule with its values, some of them ahead of it.

Assays:
TbPex3 = molecular target: T1, TbPex3 (Trypanosoma brucei, UniProt Q383Q3); assay: pull-down and MST with purified MBP-TbPex3 and NT-647-labeled His-TbPex19; inhibition of protein-protein interaction; type: binding
T1 construct: gene Tb11.01.2020; MBP fusion to TbPex3 (with 6 × His-TbPex19), recombinant from E. coli; with TbPex19

His-TbPex19 (T. brucei) [1] = assay: MST; Monolith NT.115; 100 nM each of NT-647-labeled His-Pex19 and MBP-Pex3 with DMNQ titrated from 3 nM to 100 μM; apparent
His-TbPex19 (T. brucei) [2] = assay: MST; Monolith NT.115; MBP-Pex3 (0–2.5 μM) titrated into 100 nM NT-647-labeled His-Pex19; 50 mM Tris–HCl, pH 7.4, 150 mM NaCl, 10 mM MgCl2, 0.05% Tween-20
His-HsPex19 (human) [3] = molecular target: His-HsPex19 (human) (UniProt P40855); assay: MST; Monolith NT.115; 100 nM each of NT-647-labeled His-Pex19 and MBP-Pex3 with DMNQ titrated from 3 nM to 100 μM; apparent
His-HsPex19 (human) [4] = molecular target: His-HsPex19 (human) (UniProt P40855); assay: MST; Monolith NT.115; MBP-Pex3 (0–2.5 μM) titrated into 100 nM NT-647-labeled His-Pex19; 50 mM Tris–HCl, pH 7.4, 150 mM NaCl, 10 mM MgCl2, 0.05% Tween-20

Chain of His-HsPex19 (human) (P40855 whole entry): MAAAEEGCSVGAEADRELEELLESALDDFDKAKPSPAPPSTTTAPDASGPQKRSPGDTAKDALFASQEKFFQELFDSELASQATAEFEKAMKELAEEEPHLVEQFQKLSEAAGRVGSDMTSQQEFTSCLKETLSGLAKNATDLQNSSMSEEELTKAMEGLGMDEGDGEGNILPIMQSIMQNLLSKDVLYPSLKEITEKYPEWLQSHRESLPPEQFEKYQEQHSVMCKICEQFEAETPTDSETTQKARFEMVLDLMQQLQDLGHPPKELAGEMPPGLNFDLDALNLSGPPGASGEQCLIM

Molecule: COC1=C(OC)C(=O)c2ccccc2C1=O [2,3-dimethoxy-1,4-naphthoquinone]
pull-down and MST with purified MBP-TbPex3 and NT-647-labeled His-TbPex19; inhib (TbPex3): 39.6 ± 0.86 µM

apparent KD with DMNQ titrated in (His-TbPex19 (T. brucei) [1]): 39600 nM
Kd (His-TbPex19 (T. brucei) [2]): 3.8 nM
Molecule: MBP-TbPex3 (natural protein)

KD with DMNQ titrated in (His-HsPex19 (human) [3]): 14.5 nM
Kd (His-HsPex19 (human) [4]): 4.37 nM
Molecule: MBP-HsPex3 (from UniProt P56589 1-373) (natural protein)
